Here are results for one substance from patent publication US20100166704.

One data set has as its system GST-TIA-1 RRM2. As to the kind of experiment: EMSA. Particulars: SD ±15 nM, four experiments; relative Kd; n about 1.1. On the technique in general: A gel shift assay detects complexes by their altered migration in electrophoresis.
A further data set has as its system GST-TIAR RRM2. As to the kind of experiment: EMSA. The following applies: SD ±5 nM, four experiments; relative Kd; n about 1.2.

As usually defined, the Kd is the constant that tells how readily two partners part at equilibrium. In the case of “WNV 3'(-) SL RNA (75 nt 3' terminal minus-strand)”, the figures for the dissociation constant Kd in the data set on GST-TIA-1 RRM2 and in the data set with GST-TIAR RRM2 were 0.112 µM and 0.015 µM, respectively.
